The values below come from a protein production outcome set (Wang et al. 2014).

The data set can be described thus: label from the status in PepcDB records.
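Further: failed if final PepcDB status was selected cloned or expressed and not failed if soluble or beyond.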

Consider “MKDREIFAGLSTTVPFVLRLDGRSFHRFSKDRYKKPYDKVFSDAMVKTARALVTDSGLSPSFAYTFSDEISLYVPAPVFDCRVEKLASVSAAFAASAFTLYAGASEPLAFDARVIPIEEGLFPAYLSWRQAEAWRNHMNGYAQKILQDEGVSPTNAQKQLDGMNAAALHEFAFSRGVNLALTPAWERRGICIYRDVVMRDGYNPIKDEKVSVERTIAVIDEDVPLFKSPEGTAWVLSKIRLEHHHHHH”, for which the protein production entry is given as “failed”.

Consider “MKDRLINFFGSEWFGMAIATLAVAQTFFLASRYMENITLKYTGEIFFYLGIIIFLVIFILWTIRGLTIHDKKWSHWNNLTRLSFIALVPIILFVINHITIELYGINELMARLSLYNYFFSYFLALILGVLLGYRIYTKEINRNEINYAIIIPPLSIGTSIFLATPLIGYYHGTIAESIYFLVLMGLGIFFFLYIFIGSVALSGHVSNKSGSSLPTAMLPVGVSSLIIINLISINSFGAVIDHLPFSIYTVEFVSILLWGFEVWNFLVMMIIVFRKETFGYLSVWAYGFPLGLFATSTIKLEEVTKIVILGNIFIFIWVALVLLWFYGILNTYVFIRRGILGSHPDK”, for which the protein production result is listed as “failed”.

With “MKDSQEVTHFSAARSSKWTQHDTYWLLSLFGTAVGAGILFLPINIGLGGFWPLVLMAVLAFPMTYLSHRGLARFVLSSRRPNADFTDVVEEHFGQNAGRLISLLYFLSIFPILLIYGVGLTNTVDSFLVNQADMVSPPRALLSGALVFGLIAIMLSGEKIMLRAFAIMVYPLAAILALLSLYLIPYWSMPSFDFPQTSDFLHTVWLAVPVVVFSFSHAAAISSFANIQRRHYGEQADQKSEQILRHTSVVLILFVLLFVFSCVLALSPQALQEAKAQNISVLTYLANVTDNPFIATLGPLVAFIAITSSFLGHFLGARESLSGLLTKNLGVSLRLAERLTIGFLFVTIWIAAILNPSILGMMEALSGPVIAMILFIMPMIAVFKVPALREHQKRFSTFFVLLVGLLAVSALLYSLLR”, the protein production entry was “failed”.

Regarding “MKDVIVIGAGPSGSFAAYRLAKAGFTVDILEEHREVGKPVECTGLVSQRVLKYVRTKSIAGTVRGANIFFPNGKSVHIEKDDPTIVLFRDAFDKDVAAMAIGAGSGIRINARALSVTEHDDHVTVRYRENGSIKEEDARIVIGADGINSVVRRDVYGMRQKHVVSTLQYDMASGIEDEDSVNVYLGSQYTHGFFGWAVPGGDIVRVGTGSYKASARPYMDNLSRRFGDNRTLGITGAGIPIRMAERLSSRRTVLVGDAGGIVKPLSGGGIYTGIFSSDVAANYVVEALESDSSEASLRKYDREIRNTIGKELKKDAMIQRIYSRISDRSFNRIYSMISNEKIIDVINRSGDIDYPSTVIIKVLLRNPGILYSMWKLEHHHHHH”, the protein production entry was “failed”.

With “MKEDIVSGTVKRVERHGIIVEVVAGKLDALIPRDQMIPRENFRSGDRIRALFLRVEEIGNTGRKQVILSRTSGDFLVKLYANEVPLEHHHHHH”, the protein production result was “failed”.

As to “MKEDYFAEDPKFFNKKLRPKNLDEILKFLKEKFILNDEDKIILITSGGTKVPLEKIEIRNIDNFSTGKRGTLICEYFLKINKKVIFLHRKGSYIPFEYHLKDLAKMENLKVEENNIRFNLTKENERNILIDNLQNYKMYYNNLFLISYDTIFEYGFYLIEISNLLNELMINKYQNTFLLKNIYHKLKQEHNINNLLLYEIFYSTNNILNDMLLFFMSIQNKKCSEISKHQNTSYKLYYKLLLFLNLRFDVYSNNQFFINIQLFFKYIFSLLSNIIQMKEKYNIQQEEIQNIILYIQMLIKNFNSNVLQNNINEQEVIHNNININNIKEEQIIPNNIKNIHNNDNINHCDDNKINNPDNHLLNTDTYILHNNNPSCNDYNLNNLSFNINKYINEEKGKNKKTNQHISEQFLFPTHLVIMCAAASDFYIPYDEMHENKIDSNYSPLSIQLCLTPKFYKIINSHFPLLKYCIFKLEDEEKILIDKSNERIKYTDLLIANLLTQRYDYVYIFKKQFEYVLLKKSNSEQIENDICYEICKHFSIL”, the protein production result was “failed”.

Turning to “MKEIKYLIPYVIFTSFSYYFAKNGVEQVSPSLFMGIRYLLSGLILLPFAKKLRITKNIILLAIMTSTSTAFWAYGLLYVSPAESAVLSYSMPIFSLPIAFLMVSERPSKVEIIGIVIGFTGVIIYGIPLMKGFTIFGAVLTISNAVFWASFTVFYRKLKEEDPFSTNAMQFLIGSLFLFALVPLDPSHNFSLSFAVDVIWMATLGGALQFILWNFMVKISAVNRITVLAFAVPIFTTILGVILSHEIPSGLAIAGVIIMFTGIFVSRLKGGISIVRETSG”, the protein production entry is listed as “failed”.
